Patent US20150216961A1 (MEDICAGO, published 2015)

Biological target: T1, VP2 from Rotavirus A WA strain (Rotavirus A WA strain, UniProt P11231 1-890)
T1 construct: Expressed in N. benthamiana from construct 1710 and purified as part of rotavirus-like particles; also called RVA(WA) VP2; VP2(opt)
T1 sequence: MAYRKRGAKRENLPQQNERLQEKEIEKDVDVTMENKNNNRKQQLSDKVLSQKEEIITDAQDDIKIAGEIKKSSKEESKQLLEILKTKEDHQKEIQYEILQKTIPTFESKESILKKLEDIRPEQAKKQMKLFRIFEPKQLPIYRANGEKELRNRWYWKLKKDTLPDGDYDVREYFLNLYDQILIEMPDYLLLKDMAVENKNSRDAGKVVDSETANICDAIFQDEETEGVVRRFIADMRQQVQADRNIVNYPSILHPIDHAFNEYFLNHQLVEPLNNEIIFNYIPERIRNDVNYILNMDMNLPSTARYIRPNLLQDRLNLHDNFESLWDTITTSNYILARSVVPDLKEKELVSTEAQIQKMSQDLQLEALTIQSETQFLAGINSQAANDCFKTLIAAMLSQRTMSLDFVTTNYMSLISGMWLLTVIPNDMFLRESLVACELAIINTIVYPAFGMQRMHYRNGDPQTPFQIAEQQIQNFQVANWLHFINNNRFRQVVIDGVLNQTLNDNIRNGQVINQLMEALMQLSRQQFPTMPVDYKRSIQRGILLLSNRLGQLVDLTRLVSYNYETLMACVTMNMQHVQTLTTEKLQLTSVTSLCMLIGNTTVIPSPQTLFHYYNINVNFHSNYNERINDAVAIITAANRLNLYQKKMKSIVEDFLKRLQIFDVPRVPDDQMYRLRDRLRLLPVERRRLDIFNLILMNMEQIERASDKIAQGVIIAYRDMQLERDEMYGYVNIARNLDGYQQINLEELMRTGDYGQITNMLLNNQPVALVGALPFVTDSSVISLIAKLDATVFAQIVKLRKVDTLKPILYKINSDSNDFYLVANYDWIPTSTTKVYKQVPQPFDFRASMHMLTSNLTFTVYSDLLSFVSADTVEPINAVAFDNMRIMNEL
Assay: co-expression in N. benthamiana, iodixanol gradient, cryo-electron microscopy

B1: VP6 from Rotavirus A WA strain (other)
chain: MEVLYSLSKTLKDARDKIVEGTLYSNVSDLIQQFNQMIVTMNGNDFQTGGIGNLPVRNWTFDFGLLGTTLLNLDANYVENARTIIEYFIDFIDNVCMDEMARESQRNGVAPQSEALRKLAGIKFKRINFDNSSEYIENWNLQNRRQRTGFVFHKPNIFPYSASFTLNRSQPMHDNLMGTMWLNAGSEIQVAGFDYSCAINAPANIQQFEHIVQLRRALTTATITLLPDAERFSFPRVINSADGATTWFFNPVILRPNNVEVEFLLNGQIINTYQARFGTIIARNFDAIRLLFQLMRPPNMTPAVNALFPQAQPFQHHATVGLTLRIESAVCESVLADANETLLANVTAVRQEYAIPVGPVFPPGMNWTELITNYSPSREDNLQRVFTVASIRSMLIK
notes: Expressed in N. benthamiana from construct 1713 and purified as part of rotavirus-like particles; also called RVA(WA) VP6; VP6(opt)
  binding result: binds
